Experimental findings from US20120207771A1 (MORPHOTEK, published 2012) are described below.

For test [1], the target named is T1, folate receptor alpha (FRα), human (human, UniProt P15328 25-234).
T1 construct: also called FR-alpha; FOLR-1
Put plainly: sandwich EIA, biotin-labeled detector MORAb-003, capture MOV18, row '1-S' (label not explained).

Test [2] concerns the target T1, folate receptor alpha (FRα), human. Put plainly: sandwich ECLIA on serum, 9F3 as capture (Pair 1). On the procedure: (§1) FRα levels in the serum of patients with ovarian cancer, patients with lung cancer, and normal controls were assessed. Serum FRα levels were assessed using ECLIA with two different pairs of capture-detector antibodies: Pair 1, in which 9F3 was the capture antibody and 24F12 was the detector antibody, and Pair 2, in which 26B3 was the capture antibody and 19D4 was the detector antibody.
(§2) The FRα pairs were tested with full calibrator curves and 196 individual serums diluted 1:4. In one experiment, 26B3 was used as the capture antibody after CR processing on a plate lot (75 μg/mL, +B, +T) and 19D4 was used as the detector antibody at 1.0 μg/mL. In another experiment, 9F3 was used as the capture antibody and 24F12 was used as the detector antibody at 1.0 μg/mL. Each were CR processed (lot 10070) with an label to protein ratio (L/P) of 13.3. Diluent 100 (Meso Scale Discovery, Gaithersburg, Md.)+human anti-mouse antibody (HAMA)+mIgG was used for samples and calibrator. Diluent 3 (Meso Scale Discovery, Gaithersburg, Md.) was used for detections.
(§3) The following protocol was employed for the ECLIA. Samples were added at 50 μL/well. The samples were shaken for 2 hours and subsequently washed with Phosphate Buffered Saline (PBS) solution with the detergent Tween 20 (PBST). […] Finally, the electrochemiluminescence (ECL) emission of the samples was read with 2×MSD® Buffer T.

Test [3] has the same target. Description: sandwich ECLIA on serum, 24F12 as detector (Pair 1). On the procedure:
as §1, §2, §3

For test [4] the target is unchanged. Description: sandwich ECLIA on serum, 26B3 as capture (Pair 2). As for the experimental part:
as §1, §2, §3

The target is the same in test [5]. Put plainly: sandwich ECLIA on serum, 19D4 as detector (Pair 2). On the procedure: as §1, §2, §3

T1 sequence (P15328 25-234 limits assumed): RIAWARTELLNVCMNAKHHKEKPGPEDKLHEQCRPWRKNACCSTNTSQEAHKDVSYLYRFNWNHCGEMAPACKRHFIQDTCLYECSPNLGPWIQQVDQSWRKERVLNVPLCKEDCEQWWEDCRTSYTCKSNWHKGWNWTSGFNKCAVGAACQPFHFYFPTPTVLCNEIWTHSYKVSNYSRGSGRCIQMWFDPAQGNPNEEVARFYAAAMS

B1: MORAb-003 antibody (antibody, human IgG1, kappa, V domains shown)
VH: EVQLVESGGGVVQPGRSLRLSCSASGFTFSGYGLSWVRQAPGKGLEWVAMISSGGSYTYYADSVKGRFAISRDNAKNTLFLQMDSLRPEDTGVYFCARHGDDPAWFAYWGQGTPVTVSS
VL: DIQLTQSPSSLSASVGDRVTITCSVSSSISSNNLHWYQQKPGKAPKPWIYGTSNLASGVPSRFSGSGSGTDYTFTISSLQPEDIATYYCQQWSSYPYMYTFGQGTKVEIKR
notes: Used labeled with ruthenium chelate (ECLIA) or biotin (EIA) as detector, or unlabeled as capture antibody
Take B1: the binding result in test [1] is reported as “binds”.

B2: 9F3.H9.H3.H3.B5.G2 antibody (antibody, mouse IgG2a, V domains shown)
VH: ESGPGLVRPSQSLSLTCSVTGYSITSGYYWNWIRQFPGSRLEWMGYIKSDGSNNYNPSLKNRISITRDTSKNQFFLKLNSVTTEDTATYFCTREWKAMDYWGQGTSVTVSS
VL: PAIMSASPGEKVTMTCRASSTVSYSYLHWYQQKSGASPQLWIYGTSNLASGVPARFSGSGSGTSYSLTISSVEAEDAATYYCQQYSGYPLTFGAGTKLELKR
notes: ATCC PTA-11887
As to B2, in test [2], the binding result is “binds”.

B3: 24F12.B1 antibody (antibody, mouse IgG1, V domains shown)
VH: SGGGLVRPGGSLKLSCAASGFTFSSYAMSWVRQSPEKRLEWVAEIGSGGSYTYYPDTVTGRFTISRDNAKSTLYLEMSSLRSEDTAIYYCARETTAGYFDYWGQGTTLTVSS
VL: TSSLSASLGDRVTISCSASQGINNFLNWYQQKPDGTVKLLIYYTSSLHSGVPSRFSGSGSGTDYSLTISNLEPEDIAIYYCQHFSKLPWTFGGGTKLEIKR
notes: ATCC PTA-11886
On to B3, for which the binding result in test [3] is “binds”.

B4: 26B3.F2 antibody (antibody, mouse IgG1, V domains shown)
VH: GPELVKPGASVKISCKASDYSFTGYFMNWVMQSHGKSLEWIGRIFPYNGDTFYNQKFKGRATLTVDKSSSTAHMELRSLASEDSAVYFCARGTHYFDYWGQGTTLTVSS
VL: PASLSASVGETVTITCRTSENIFSYLAWYQQKQGISPQLLVYNAKTLAEGVPSRFSGSGSGTQFSLKINSLQPEDFGSYYCQHHYAFPWTFGGGSKLEIKR
notes: ATCC PTA-11885
B4: the binding result in test [4] is recorded as “binds”.

B5: 19D4.B7 antibody (antibody, mouse IgG2a, V domains shown)
VH: GAELVKPGASVKLSCTASGFNIKHPYMHWVKQRPDQGLEWIGRIDPANGNTKYDPKFQGKATITADTSSNTAYLQLSSLTSEDTAVYYCGREEVADYTMDYWGQGTSVTVSS
VL: PASLAVSLGQRATISCRASESVDTYGNNFIHWYQQKPGQPPKLLIYLASNLESGVPARFSGSGSRTDFTLTIDPVEADDAATYYCQQNNGDPWTFGGGTKLEIKR
notes: ATCC PTA-11884
For B5, in test [5], the binding result is listed as “binds”.
